According to US20250051455A1 (Hoffmann-La Roche, published 2025):

What was measured:
[1] = molecular target: T1, recombinant soluble human HLA-G β2M MHC class I complex, dimer (human); experiment: ELISA, HLA-G dimer coated at random on plate
T1 construct: Non-biotinylated; also called HLA-G Dimer; dimeric HLA-G
Description: (§1) The above table summarizes the binding of different rat anti-human HLA-G monoclonal antibodies, derived from wt protein IMS. Shown are the relative EC50 values [ng/ml] of the respective binding to rec. wt monomeric, dimeric and trimeric HLA-G proteins as assessed by ELISA. The ELISA was set up by coating the biotinylated wt HLA-G antigen to strepdavidin plates. After incubation and washing steps, the respective antibodies were bound in a concentration range from 10-0 μg in 1:2 dilution steps. Detection of bound antibodies was carried out by anti-Fc-antibody-POD conjugates. EC50 values were determined from the resulting binding curves at the antibody concentrations generating the half-maximal signal. In case of the non-biotinylated HLA-G dimer and trimer antigens, immobilization was carried out by random coating on assay plates.

[2] = molecular target: T2, recombinant soluble human HLA-G β2M MHC class I complex, trimer (human); experiment: ELISA, HLA-G trimer coated at random on plate
T2 construct: Non-biotinylated; also called HLA-G Trimer; trimeric HLA-G
Description: as §1

[3] = molecular target: T3, recombinant soluble human HLA-G β2M MHC class I complex, monomer (human); experiment: blocking ELISA on biotinylated wt HLA-G; competitor c-myc ILT-2
T3 construct: His tagged; biotinylated where coated on streptavidin plates, non-biotinylated in SPR; also called HLA-G-0003; wt HLA-G (monomer)
Description: Streptavidin coated plates (Nunc, MicroCoat #11974998001) were coated with 25 µl/well biotinylated human wt HLA-G at a concentration of 500-1000 ng/ml and incubated at 4° C. overnight. After washing (3×90 μl/well with PBST-buffer) 25 μl anti-HLA-G samples were added in decreasing concentrations starting at 10 or 3 μg/ml, then diluted in 1:3 or 1:2 steps and incubated 1 h at RT. After washing (3×90 μl/well with PBST-buffer) 25 μl/well c-myc-tagged recombinant ILT-2 receptor was added at a concentration of 200 ng/ml and incubated for 1 h at room temperature. […] After washing (3×90 μl/well with PBST-buffer), 25 μl/well TMB substrate (Roche, 11835033001) was added and incubated until OD 2-3. Measurement took place on a Tecan Safire 2 instrument at 370/492 nm
The table above summarizes the extent of ILT-2 and ILT-4 blocking of different antibodies bound to HLA-G at a concentration of 3 μg/ml, relative to an HLA-G:receptor interaction that is not blocked. HLA-G-0090 was tested in a separate experiment for ILT2 blockade, ILT4 blocking was not assessed

[4] = molecular target: T3, recombinant soluble human HLA-G β2M MHC …; experiment: competition ELISA, one antibody concentration; competitor coated ILT2-Fc
Description: (§2) The ELISA was set up by coating the Fc tagged ILT2 and ILT4 respectively to Maxisorp microtiter plates. After incubation and washing steps, the respective antibodies were added at a concentration of 100 nM. Soluble His tagged monomeric, dimeric or trimeric HLA-G was added to the wells. After incubation and washing steps, detection of bound receptor was carried out by anti-His-antibody-POD conjugates.
(§3) The above tables summarize the blocking of interaction between rec. HLA-G proteins (monomer and oligomers) to its receptors ILT2 and ILT4 by the described HLAG antibodies at a concentration of 110 nM (*HLAG-0090 was tested at a concentration of 44 nM) as assessed by ELISA. Shown are the % inhibitions of the HLA-G/receptor interaction (for ILT2 and ILT4). The less pronounced ILT4 inhibition depends on the major β2M dependent interaction of this receptor.

[5] = molecular target: T1, recombinant soluble human HLA-G β2M MHC …; experiment: as above
Description: as §2, §3

[6] = molecular target: T2, recombinant soluble human HLA-G β2M MHC …; experiment: as above
Description: as §2, §3

[7] = molecular target: T3, recombinant soluble human HLA-G β2M MHC …; experiment: SPR Biacore T200, antibody captured via anti-Fc, HLA-G monomer as analyte, 25 C
Description: Binding kinetics of anti-HLA-G antibodies to human HLA-G, human HLA-G degrafted and human HLA-A2 were investigated by surface plasmon resonance using a BIACORE T200 instrument (GE Healthcare). All experiments were performed at 25° C. using PBS Buffer (pH 7.4+0.05% Tween20) as running buffer and PBS Buffer (+0.1% BSA) as dilution buffer. Anti-human Fc (JIR009-005-098, Jackson) or anti-rat Fc (JIR112-005-071, Jackson) or anti-Mouse Fc (JIR115-005-071, Jackson) antibodies were immobilized on a Series S CM5 Sensor Chip (GE Healthcare) at pH 5.0 by using an amine coupling kit supplied by GE Healthcare. Anti-HLA-G antibodies were captured on the surface leading to a capturing response of 50-200 RU. HLA-G molecules were injected for 180 s at 30 μl/min with concentrations from 2.5 up to 800 nM (2×1:2 and 4×1:3 dilution series) onto the surface (association phase). The dissociation phase was monitored for 300-600 sec by washing with running buffer. The surface was regenerated by injecting H3PO4 (0,85%) for 60+30 seconds for anti-human Fc capturing antibodies, glycine pH1,5 for 60 seconds and glycine pH2,0 for 60 seconds for anti-rat Fc capturing antibodies, H3PO4 (0,85%) for 80+60 seconds for anti-mouse Fc capturing antibodies. Bulk refractive index differences were corrected by subtracting the response obtained from a mock surface. Blank injections were subtracted (double referencing). The derived curves were fitted to a 1:1 Langmuir binding model using the BIAevaluation software.
The above table summarizes the antibody affinities and t½ values against wt and degrafted HLA-G as assessed by Surface plasmon resonance (Biacore) analysis. Binding kinetics of anti-HLA-G antibodies to human HLA-G and human HLA-G degrafted were investigated by surface plasmon resonance using a BIACORE T200 instrument (GE Healthcare). All experiments were performed at 25° C. using PBS Buffer (pH 7.4+0.05% Tween20) as running buffer and PBS Buffer (+0.1% BSA) as dilution buffer. Anti-human Fc (JIR009-005-098, Jackson) or anti-rat Fc (JIR112-005-071, Jackson) or anti-Mouse Fc (JIR115-005-071, Jackson) antibodies were immobilized on a Series S CM5 Sensor Chip (GE Healthcare) at pH 5.0 by using an amine coupling kit supplied by GE Healthcare.

Binder | EC50 [1] [nM] | EC50 [2] [nM] | % inh. ILT2 (3 µg/ml antibody) [3] [%] | % inhibition of ILT2 binding [4] [%] | % inhibition of ILT2 binding [5] [%] | % inhibition of ILT2 binding [6] [%] | Kd [7] [nM] | koff [7] [s⁻¹] | kon [7] [M⁻¹ s⁻¹] | t 1/2 [7] [min]
HLA-G-0031 (antibody, V domains shown, Rat monoclonal antibody obtained from CD rats) VH: QVKLMQSGAALVKPGTSVKMSCNASGYTFTDYWVSWVKQSHGKRLEWVGEISPNSGASNFDENFKDKATLTVDKSTSTAYMELSRLTSEDSAIYYCTRSSHGSFRWFAYWGQGTLVTVSS VL: AIVLNQSPSSIVASQGEKVTITCRASSSVSSNHLHWYQQKPGAFPKFVIYSTSQRASGIPSRFSGSGSGTSYSFTISRVEAEDVATYYCQQGSSNPYTFGAGTKLELK | 1.87 | 1.86 | 72.8 | 101 | 99 | 100 | 75 | 0.0037 | 49000 | 3
HLA-G-0039 (antibody, V domains shown, Human antibody from humanized OmniRat (OMT) rats) VH: EVQLLESGGGLVQPGGSLRLSCAASGFTFSSYAMNWVRQAPGKGLEWVSVISGSGVSTYYADSVKGRFTISRDNSRNTLSLQMNSLRAEDTAVYYCAKDGSYNYGYGDYFDYWGQGTLVTVSS VL: not shown | 4.1 | 5.29 | 14 | -450 | 25 | 70 | 0.95 | 0.00044 | 460000 | 27

Other lines, results leading:

EC50 [1] [nM] | EC50 [2] [nM] | % inh. ILT2 (3 µg/ml antibody) [3] [%] | % inhibition of ILT2 binding [4] [%] | % inhibition of ILT2 binding [5] [%] | % inhibition of ILT2 binding [6] [%] | Kd [7] [nM] | koff [7] [s⁻¹] | kon [7] [M⁻¹ s⁻¹] | t 1/2 [7] [min] | Binder
 |  |  |  |  |  | 3.6 | 0.00085 | 230000 | 14 | HLA-G-0090 (antibody, V domains shown, Human antibody from humanized OmniRat (OMT) rats) VH: QVQLQQSGPGLLKPSQTLSLTCAISGDSVSSNRAAWNWIRQSPSRGLEWLGRTYYRSKWYNDYAVSVQGRITLIPDTSKNQFSLRLNSVTPEDTAVYYCASVRAVAPFDYWGQGVLVTVSS VL: not shown
5.31 | 4.87 | 17.4 | -437 | 23 | 67 | 1.3 | 0.00049 | 380000 | 23 | HLA-G-0041 (antibody, V domains shown, Human antibody from humanized OmniRat (OMT) rats) VH: EVQLLESGGGLVQPGGSLRLSCAASGFTFSTYGMSWVRQAPGKGLEWVSVISGGGVSTYYADSVKGRFTISRDNSKNTLYLQMNRLRAEDTAVYYCAKDGSYNYGYGDYFDYWGQGTLVTVSS VL: not shown
